Test results taken from paper PMC3472031.
Values joined by “and” are separate entries in the source; they are usually repeats but may differ in a detail not shown here. Equal values may be shown once.

Columns and labels:
[1] = target: EspFU R2 20-residue peptide from second repeat (Escherichia coli O157:H7), P0DJ88; assay: ITC
[2] = target: EspFU R475 R475 (fifth 47-residue repeat) (Escherichia coli O157:H7), P0DJ88; assay: ITC

B1: IRTKS SH3 SH3, Q9UHR4 (protein)
chain: LNMMKKQKVKTIFPHTAGSNKTLLSFAQGDVITLLIPEEKDGWLYGEHDVSKARGWFPSSYTKLLEENET
Kd [1]: 1100 nM

B2: N-WASP GBD GBD, O00401 (protein)
chain: KRLTKADIGTPSNFQHIGHVGWDPNTGFDLNNLDPELKNLFDMCGISEAQLKDRETSKVIYDFIEKTGGVEAVKNELRR
Kd [2]: 40 nM and 70 nM
